Sequences and labels used below:
B1: Chimeric TIM3-0028 (antibody, human IgG1, V domains shown)
VH: EVQLQQSVAELVRPGASVKLSCTASGFNIKTTYMHWVKQRPEQGLEWIGRIDPADDNTKYAPKFQGKATITADTSSNTAYLQLSSLTSEDAAIYYCVRDFGYVAWFAYWGQGTLVTFSA
VL: NIVMTPTPKFLPVSSGDRVTMTCRASQSVDNYVAWYQQKPGQSPKLLIYYASNRYIGVPDRFTGSGSGTDFTFTISSVQVEDLAVYFCQQHYSSPYTFGSGTKLEIK
notes: also called aTIM3-chi28
B2: PD1-0103 (antibody, V domains shown)
VH: EVILVESGGGLVKPGGSLKLSCAASGFSFSSYTMSWVRQTPEKRLDWVATISGGGRDIYYPDSVKGRFTISRDNAKNTLYLEMSSLMSEDTALYYCVLLTGRVYFALDSWGQGTSVTVSS
VL: KIVLTQSPASLPVSLGQRATISCRASESVDTSDNSFIHWYQQRPGQSPKLLIYRSSTLESGVPARFSGSGSRTDFTLTIDPVEADDVATYYCQQNYDVPWTFGGGTKLEIK
notes: Mouse monoclonal antibody
B3: PD1-0102 (antibody, V domains shown)
VH: DVQLQESGPDLVKPSQSLSLTCTVTGYSITSGYSWHWIRQFPGNKLEWMGFIHSSGDTNYNPSLKSRISFTRDTSKNQFFLQLSSLTDEDTATYYCATYRNWYFDVWGAGTTVTVSS
VL: DIVMTQSPSSLTVTAGEKVTMRCKSSQSLLNSGTQKNYLTWYQQKPGQPPKLLIYWASTRESGVPNRFTGSGSGTDFTLTISSVQAEDLSVYYCQSDYTFPLTFGGGTKLELK
B4: PD1-0098 (antibody, V domains shown)
VH: DVQLQESGPGLVKPSQSLSLTCTVTGYSITSDYAWNWIRQFPGDKLEWLGYITYSGFTNYNPSLKSRISISRDTSKNQFFLQLNSVATEDTATYYCARWHGSAPWYFDYWGRGTTLTVSS
VL: DVLMTQTPLSLPVSLGDQASISCRSSQNIVHSDGNTYLEWYLQKPGQSPNLLIYKVSRRFSGVPDRFSGSGSGTDFTLKISRVEAEDLGVYYCFQGSHFPLTFGAGTKLELK
B5: PD1-0069 (antibody, V domains shown)
VH: QVQLQQSGPELVRPGVSVKISCKGSGYTFTDYAMHWVKQSHARTLEWIGVISTYSGDTNYNQKFKDKATMTVDKSSSTAYLELARMTSEDSAIYYCARLGITTGFAYWGQGTLVTVSA
VL: DIVLTQSPASLAVSLGQRATISCRASKGVSTSSYSFMHWYQQKPRQPPKLLIKYASYLESGVPARFSGSGSGTDFTLNIHPVEEEDAATYYCHHSREFPWTFGGGTKLEIK
B6: PD1-0073 (antibody, V domains shown)
VH: EVKLVESGGGLVKPGGSLKLSCAASGFTFSNYGMSWIRQTPEKGLEWVATISGGGRDTYYPDSVKGRFTISRDNVKNNLYLQMSSLRSEDTAFYYCASYYYGIDYWGQGTSVTVSS
VL: DIVMTQPHKFMSTSVGDRVRITCKASQDVTTAVAWYQQKPGQSPKLLIYWASTRHTGVPDRFTGSGSGTEFTLTISSVQAEDLALYYCQQHYSIPWTFGGGTKLEIK
B7: PD1-0050 (antibody, V domains shown)
VH: DVQLQESGPGLVKPSQSLSLTCTVTGYSITSDYAWNWIRQFPGNKLEWMGYITYTGRTSYNPSLKSRISITRDTSKNQFFLQLNSVTTEDTATYYCAREMDYYGSTLDYWGQGTTLTVSS
VL: KIVLTQSPASLAVSLRQRATISCRASESVDRYGNSFIHWYQQKPGQPPKVLIYRASNLESGFPARFSGSGSRTDFTLTIDPVEADDAATYYCQQNNEDPYTFGSGTKLEIK
B8: PD1-0078 (antibody, V domains shown)
VH: QVQLQQPGAELVKPGASVKMSCKASGYTFTSTWMHWVKQRPGQGLEWIGAIDPSDSYTTYNQKFKGKATLTVDTSSTTAYMQLSSLTSEDSAVYYCTRSPFDYWGQGTTLTVSS
VL: DIVMTQSHKFMSTSVGDRVSITCKASQDVSTAVAWYQQKPGQSPKLLIYSASYRYTGVPDRFTGSGSGTDFTFAISSVQAEDLAVYYCQQHYSHPFTFGSGTKLEIK
B9: Tim3_0018MutNQ (antibody, V domains shown)
VH: QVTLKESGPGILQPSQTLSLTCSFSGFSLSTSGMSVGWIRQPSGKGLEWLAHIWLNDDVFFNPALKRRLTISKDTSNNQVFLQIASVVTADTATYYCVRANGYLYALDYWGQGISVTVSS
VL: QIVLTQSPAIMSASPGQKVTITCSASSSVQYTQWYQQKLGSSPKLWIYDAFKLAPGVPARFSGSGTGTSYSLTISSMEAEDAASYFCHQWSSYPWTFGGGTKLEIK
B10: Tim3_0016MutNQ (antibody, V domains shown)
VH: B9 VH with S19R, R67S, I114T
VL: B9 VL
B11: Tim3_0018MutNS (antibody, V domains shown)
VH: B9 VH
VL: B9 VL with Q30S
B12: Tim3_0016MutNS (antibody, V domains shown)
VH: B9 VH with S19R, R67S, I114T
VL: B9 VL with Q30S
B13: Tim3_0038 (antibody, V domains shown)
VH: EVQLQQSGAEPLKPGASVKLTCTTSGFNIKDYYIHWVKQRSDQGLEWIGRIDPEDGELIYAPKFQDKATITVDTSSNIAYLQLNSLTSEDTAVYYCSRDHGYVGWFAYWGQGTLVTVSA
VL: NVVMTQSPKSMIMSVGQRVTLNCKASENVDTYVSWYQQKPEQSPKLLIYGASNRYTGVPDRFTGSRSATDFTLTISSVQAEDLAVYYCGQSYSYPWTFGGGTKLEFR
B14: Tim3_0016 (antibody, V domains shown)
VH: B9 VH with S19R, R67S, I114T
VL: B9 VL with Q30N

Numbering of substitutions follows the chain as printed.

In general, IC50 refers to the concentration needed to halve the response being measured. Broadly, the EC50 is the concentration needed to bring the measured effect to its halfway point. Lower therefore signals an effect from little substance.

The target of the first experiment is T1, biotinylated PD1-ECD-AviHis (human, UniProt Q15116 25-170, biotinylated, site not stated).
T1 construct: also called huPD1; hu PD1
Put plainly: ELISA on coated biotinylated PD1-ECD-AviHis. Background: In an ELISA, binding on a coated surface is turned into a signal by an enzyme label.
As for B1, the binding result is given as “no binding”.

Another experiment concerns the target T1, biotinylated PD1-ECD-AviHis. Put plainly: ELISA, inhibition of PD-L1 Fc binding to coated PD1-ECD-AviHis.
B2: the half-inhibitory concentration (IC50) worked out at 0.182 µg/mL.
Still for that read-out and setting: the figure for B3 is over 35.5 µg/mL; for B4 it is 0.174 µg/mL; for B5 it is 0.225 µg/mL.
The same measure, in the same setting: with B6 the figure was 0.124 µg/mL.
Same read-out and setting: with B7 the figure was 0.128 µg/mL.

The next experiment shares this target. Put plainly: ELISA, inhibition of PD-L2 Fc binding to coated PD1-ECD-AviHis.
Description: After washing (3×90 μl/well with PBST-buffer) 25 μl anti PD1 samples or reference antibodies (mouse anti huPD1; Roche) were added and incubated 1 h at RT on shaker.
B2 showed an IC50 of 0.051 µg/mL.
On the same count and under the same terms, with B3 the figure was 0.14 µg/mL.
The molecule B4 showed an IC50 of 0.045 µg/mL.
Still for that read-out and setting: with B5 the figure was 0.089 µg/mL; with B6, 0.065 µg/mL; with B8, 0.086 µg/mL.
On the same count and under the same terms, with B7 the figure was 0.034 µg/mL.

Another experiment deals with T2, full-length human Tim3 on cells (CHO-K1 stably transfected with plasmid 15312_hTIM3-fl_pUC_Neo) (human, UniProt Q8TDQ0 22-301).
T2 construct: Also used as the target of the MLR read-outs (native TIM-3); also called CHO-Tim3; CHO-TIM3
Put plainly: cellular ELISA on CHO-TIM3 (values in relation to the samples max value).
Description: (§1) Then the reaction was stopped by addition of 25 μl/well 1N HCL-solution.
With B9, the EC50 came to 0.0134 µg/mL.
On to B10, for which a half-maximal effect (EC50) was put at 0.0063 µg/mL.
On the same count and under the same terms, the figure for B11 is 0.0112 µg/mL; for B12 it is 0.0091 µg/mL.

The target in another experiment is T3, Tim3-ECD-His-Biotin (human, UniProt Q8TDQ0 22-202, biotinylated with BirA Ligase, site not stated).
T3 construct: also called human Tim3 (ELISA); Biochem Human
Put plainly: ELISA on human Tim3.
As to B9, the Inflexion point came to 10.8 ng/mL.
On the same count and under the same terms, with B10 the figure was 5.7 ng/mL; with B11, 6.5 ng/mL.
The same measure, in the same setting: the figure for B12 is 5.5 ng/mL.

For the next experiment, the target named is T2, full-length human Tim3 on cells (CHO-K1 …). Put plainly: cell-based or functional assay.
Turning to B13, the “IFN-gamma release in MLR at 1 µg/ml antibody, % of rec hu IL-2 (20 EU/ml) = 100%” value stood at 1%; the “IFN-gamma release in MLR at 10 µg/ml antibody, % of rec hu IL-2 (20 EU/ml) = 100%” value worked out at 38%; the “IFN-gamma release in MLR at 40 µg/ml antibody, % of rec hu IL-2 (20 EU/ml) = 100%” value was determined as 51%.
Take B14: the “IFN-gamma release in MLR at 1 µg/ml antibody, % of rec hu IL-2 (20 EU/ml) = 100%” value was determined as 7% and the “IFN-gamma release in MLR at 10 µg/ml antibody, % of rec hu IL-2 (20 EU/ml) = 100%” value was found to be 22%.

The next experiment concerns the target T4, biotinylated cynoPD1-ECD-Biotin (cynomolgus).
T4 construct: extracellular domain; also called cyPD1
Put plainly: ELISA on coated cynoPD1-ECD-Biotin.
Description: After washing (3×90 μl/well with PBST-buffer) 25 μl anti PD1 samples or reference antibodies (human anti PD1; Roche) were added and incubated 1 h at RT on shaker. After washing (3×90 μl/well with PBST-buffer) 25 μl/well goat-anti-human H+L-POD (JIR, JIR109-036-088) was added in 1:1000 dilution and incubated at RT for 1 h on shaker.
Turning to B2, it took 0.0369 µg/mL to reach a half-maximal effect (EC50).
Same read-out and setting: with B3 the figure was 0.0527 µg/mL.
In turn, B4 had an EC50 of 0.0546 µg/mL.
Same read-out and setting: with B5 the figure was 0.0227 µg/mL.
Consider B6, for which the EC50 was determined as 0.0083 µg/mL.
Same read-out and setting: with B8 the figure was 0.0224 µg/mL; with B7, 0.0098 µg/mL.

The next experiment addresses T1, biotinylated PD1-ECD-AviHis. Put plainly: ELISA on coated biotinylated PD1-ECD-AviHis. The source holds these as a separate data set.
Description: After washing (3×90 μl/well with PBST-buffer) 25 μl/well goat-anti-human H+L-POD (JIR, JIR109-036-088)/Sheep-anti-mouse-POD (GE Healthcare; NA9310) was added in 1:2000/1:1000 dilution and incubated at RT for 1 h on shaker.
The molecule B2 displayed an EC50 of 0.0337 µg/mL.
Same read-out and setting: with B3 the figure was 0.0342 µg/mL.
The same measure, in the same setting: the figure for B4 is 0.0508 µg/mL.
In the case of B5, the EC50 turned out to be 0.0457 µg/mL.
On the same count and under the same terms, with B6 the figure was 0.0151 µg/mL.
The molecule B8 returned an EC50 of 0.0263 µg/mL.
Still for that read-out and setting: the figure for B7 is 0.0179 µg/mL.

The target of the next experiment is T2, full-length human Tim3 on cells (CHO-K1 …). Put plainly: cellular ELISA on CHO-TIM3.
Description: as §1
With B9, the Inflexion point worked out at 12.8 ng/mL.
On the same count and under the same terms, the figure for B10 is 5.4 ng/mL; for B11 it is 11.1 ng/mL; for B12 it is 8.5 ng/mL.

The next experiment concerns the target T3, Tim3-ECD-His-Biotin. Put plainly: ELISA on human Tim3 (values in relation to the samples max value).
Description: After washing (3×90 μl/well with PBST-buffer) 25 μl aTim3 samples or diluted (1:2 steps) reference antibody aTim3 F38-2E2 (Biolegend) was added and incubated 1 h at RT. After washing (3×90 μl/well with PBST-buffer) 25 μl/well sheep-anti-mouse-POD (GE NA9310V) was added in 1:9000 dilution and incubated at RT for 1 h while shaking at 400 rpm rotation. After washing (4×90 μl/well with PBST-buffer) 25 μl/well TMB substrate (Calbiochem, #CL07) was added and incubated until OD 1.5-2.5. Then the reaction was stopped by addition of 25 μl/well 1N HCL-solution.
Take B9: the EC50 was found to be 0.012 µg/mL.
Still for that read-out and setting: the figure for B10 is 0.0076 µg/mL; for B11 it is 0.0103 µg/mL.
Same read-out and setting: with B12 the figure was 0.0085 µg/mL.

The values are drawn from US20190322748A1 (Hoffmann-La Roche, published 2019).
